Source: article PMC7311308

Target: CD46-D4

Ad26 knob (domain or fragment) gave a Kd of 120 nM.
